Test results reported in CN105713087A (BEIJING HEALTH GUARDS BIOTECHNOLOGY CO LTD, dated 2016).

How the values were obtained:
HPV-18 L1 VLP = target: T1, HPV-18 L1 VLP (human papillomavirus type 18, UniProt P06794 62-568); test: indirect ELISA on coated VLP
T1 construct: also called HPV18VLP
T1 sequence: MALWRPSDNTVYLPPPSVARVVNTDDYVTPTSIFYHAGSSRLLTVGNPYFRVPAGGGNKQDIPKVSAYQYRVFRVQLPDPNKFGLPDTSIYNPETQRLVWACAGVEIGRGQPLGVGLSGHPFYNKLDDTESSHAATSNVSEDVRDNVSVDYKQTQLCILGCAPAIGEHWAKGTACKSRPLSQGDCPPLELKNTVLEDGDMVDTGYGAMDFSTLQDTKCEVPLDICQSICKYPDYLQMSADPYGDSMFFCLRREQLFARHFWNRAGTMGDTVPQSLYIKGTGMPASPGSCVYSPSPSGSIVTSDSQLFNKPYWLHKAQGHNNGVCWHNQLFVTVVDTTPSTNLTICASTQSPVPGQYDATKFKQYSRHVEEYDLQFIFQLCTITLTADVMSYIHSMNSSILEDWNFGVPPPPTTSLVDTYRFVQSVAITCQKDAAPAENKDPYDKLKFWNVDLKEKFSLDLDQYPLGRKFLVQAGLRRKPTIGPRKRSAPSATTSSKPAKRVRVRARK

HPV-16 L1 VLP = target: T2, HPV-16 L1 VLP (human papillomavirus type 16, UniProt P03101 1-505); test: indirect ELISA on coated VLP
T2 construct: also called HPV16VLP
T2 sequence: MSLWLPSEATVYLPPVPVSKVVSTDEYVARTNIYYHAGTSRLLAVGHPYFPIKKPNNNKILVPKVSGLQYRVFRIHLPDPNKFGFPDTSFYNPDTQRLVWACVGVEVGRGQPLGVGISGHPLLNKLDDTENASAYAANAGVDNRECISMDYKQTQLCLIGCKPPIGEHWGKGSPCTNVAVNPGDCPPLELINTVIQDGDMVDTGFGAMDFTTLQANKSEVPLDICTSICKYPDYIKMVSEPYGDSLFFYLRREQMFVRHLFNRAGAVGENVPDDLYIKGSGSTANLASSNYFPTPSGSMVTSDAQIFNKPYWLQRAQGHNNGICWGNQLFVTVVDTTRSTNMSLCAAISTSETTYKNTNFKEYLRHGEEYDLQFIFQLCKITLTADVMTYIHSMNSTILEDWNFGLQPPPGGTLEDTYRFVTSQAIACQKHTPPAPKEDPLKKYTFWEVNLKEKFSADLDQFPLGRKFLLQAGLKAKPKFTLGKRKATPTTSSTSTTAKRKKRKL

HPV11 VLP = target: T3, HPV11 VLP (human papillomavirus type 11, UniProt P04012 1-501); test: SPR (BIACORE 3000)
T3 sequence: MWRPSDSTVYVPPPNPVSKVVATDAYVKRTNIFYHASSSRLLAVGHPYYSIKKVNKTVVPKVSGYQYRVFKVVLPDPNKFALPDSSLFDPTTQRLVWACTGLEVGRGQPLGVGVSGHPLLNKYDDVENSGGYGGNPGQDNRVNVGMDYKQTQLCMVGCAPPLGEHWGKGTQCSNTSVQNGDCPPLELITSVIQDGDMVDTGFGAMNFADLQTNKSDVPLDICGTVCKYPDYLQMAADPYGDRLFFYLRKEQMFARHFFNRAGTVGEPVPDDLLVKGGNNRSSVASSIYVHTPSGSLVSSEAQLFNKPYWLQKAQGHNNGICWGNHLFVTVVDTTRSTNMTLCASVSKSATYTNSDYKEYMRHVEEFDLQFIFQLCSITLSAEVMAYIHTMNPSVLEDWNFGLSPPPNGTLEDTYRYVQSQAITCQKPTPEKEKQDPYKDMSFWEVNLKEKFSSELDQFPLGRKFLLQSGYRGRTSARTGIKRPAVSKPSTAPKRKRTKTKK

HPV45 VLP = target: T4, HPV45 VLP (human papillomavirus type 45, UniProt P36741 27-539); test: SPR (BIACORE 3000)
T4 sequence: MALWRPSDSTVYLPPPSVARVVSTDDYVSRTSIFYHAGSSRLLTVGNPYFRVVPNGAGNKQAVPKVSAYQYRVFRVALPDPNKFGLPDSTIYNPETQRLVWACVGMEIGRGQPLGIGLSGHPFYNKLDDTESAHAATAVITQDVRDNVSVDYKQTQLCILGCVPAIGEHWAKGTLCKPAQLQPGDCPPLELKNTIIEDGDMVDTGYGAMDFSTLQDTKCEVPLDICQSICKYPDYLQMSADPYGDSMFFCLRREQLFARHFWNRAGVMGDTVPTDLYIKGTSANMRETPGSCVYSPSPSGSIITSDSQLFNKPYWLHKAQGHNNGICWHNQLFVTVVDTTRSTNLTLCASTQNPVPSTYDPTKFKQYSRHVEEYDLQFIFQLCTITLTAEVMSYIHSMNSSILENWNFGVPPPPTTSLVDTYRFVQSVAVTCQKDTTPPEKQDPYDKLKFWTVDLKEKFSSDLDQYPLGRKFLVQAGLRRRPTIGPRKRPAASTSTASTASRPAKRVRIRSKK

HPV31 VLP = target: T5, HPV31 VLP (human papillomavirus type 31, UniProt P17388 1-504); test: SPR (BIACORE 3000)
T5 sequence: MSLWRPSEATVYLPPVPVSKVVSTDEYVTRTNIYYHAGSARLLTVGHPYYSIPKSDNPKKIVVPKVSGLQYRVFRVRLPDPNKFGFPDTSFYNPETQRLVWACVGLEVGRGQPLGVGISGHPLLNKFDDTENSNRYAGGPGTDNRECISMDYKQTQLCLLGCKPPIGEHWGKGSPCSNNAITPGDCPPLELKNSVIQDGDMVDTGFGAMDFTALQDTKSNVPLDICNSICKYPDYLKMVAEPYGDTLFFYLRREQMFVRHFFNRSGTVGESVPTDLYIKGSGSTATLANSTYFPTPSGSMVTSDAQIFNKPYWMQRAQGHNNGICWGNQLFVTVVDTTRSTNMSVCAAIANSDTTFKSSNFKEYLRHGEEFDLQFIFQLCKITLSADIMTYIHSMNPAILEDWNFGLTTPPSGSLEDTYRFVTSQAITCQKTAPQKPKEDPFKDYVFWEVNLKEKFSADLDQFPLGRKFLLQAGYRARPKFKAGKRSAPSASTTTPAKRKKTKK

HPV6 VLP = target: T6, HPV6 VLP (human papillomavirus type 6, UniProt P69899 1-500); test: SPR (BIACORE 3000)
T6 sequence: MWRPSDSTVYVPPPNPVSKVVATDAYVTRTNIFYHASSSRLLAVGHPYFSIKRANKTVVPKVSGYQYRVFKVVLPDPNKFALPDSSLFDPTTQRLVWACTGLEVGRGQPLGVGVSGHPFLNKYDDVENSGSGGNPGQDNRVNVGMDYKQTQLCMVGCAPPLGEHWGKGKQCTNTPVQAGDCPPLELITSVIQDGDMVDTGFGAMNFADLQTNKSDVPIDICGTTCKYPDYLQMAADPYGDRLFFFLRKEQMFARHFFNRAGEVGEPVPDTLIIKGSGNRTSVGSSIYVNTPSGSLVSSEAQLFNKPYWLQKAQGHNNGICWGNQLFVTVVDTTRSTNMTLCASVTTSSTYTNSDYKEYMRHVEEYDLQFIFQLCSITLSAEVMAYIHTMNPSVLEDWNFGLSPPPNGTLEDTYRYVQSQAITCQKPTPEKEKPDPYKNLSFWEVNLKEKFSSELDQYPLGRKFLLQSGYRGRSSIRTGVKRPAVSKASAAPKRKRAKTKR

B1: 单克隆抗体2F7 (杂交瘤细胞株2F7, CGMCC No.11295) (antibody, V domains shown)
VH: VQLQQSGPGLVQPSQSLSITCTVSGFSLTSYGVHWVRQSPGKGLEWLGVIWSGGSTDYNAAFISRLSISKDNSKSQVFFKMNSLQANDTAIYYCARRDGNSRYAMDYWGQGTTVTVSS
VL: DIQLTQSPSSMSASLGDRITITCQATQDIVKNLNWYQQKPGKPPSFLIYYATELAEGVPSRFSGSGSGSDYSLTISNLESEDFADYYCLQFYEFPLTFGAGTKLEI
notes: also called 克隆2F7
Which results are given for B1?
binding result (HPV-18 L1 VLP): no binding (tested: 0.3μg/ml); binding result (HPV-16 L1 VLP): no binding (tested: 0.3μg/ml); binding result (HPV11 VLP): no binding (tested: 20nmol/L); binding result (HPV45 VLP): no binding (tested: 20nmol/L); binding result (HPV31 VLP): no binding (tested: 20nmol/L); binding result (HPV6 VLP): no binding (tested: 20nmol/L)
